Source: US9388450B2, “FRET based multiplex probes” (University of North Texas Health Science Center at Fort …, priority 2013, dated 2016)
Ends that are not written are not given here.

What was measured:
Assay type in all cases: biochemical
[1] = target: MMP-9 (Homo sapiens, UniProt P14780); assay: FRET-based detection of peptide cleavage by MMP-9
Excerpt: Matrix metalloproteinases (MMPs) are involved in major human diseases such as cancer, AIDS, and inflammation. Therefore, sensitive detection and imaging of MMPs activities offer great clinical value to cancer detection, treatment, and therapy monitoring. Among many successful approaches that utilize peptide chemistry Förster resonance energy transfer (FRET) offers high potential for development of in-vitro and in-vivo proteases assays. Recently we developed and tested a specific peptide sequence that is a substrate for MMP-9 (Lys-Gly-Pro-Arg-Ser-Leu-Ser-Gly-Lys) (SEQ ID NO.: 3) (FIG. 4), which is cleaved into Lys-Gly-Pro-Arg-Ser (SEQ ID NO.: 4) and Leu-Ser-Gly-Lys (SEQ ID NO.: 5). Other non-limiting sequence targets can include, e.g., peptide substrates for a consensus for MMP-2 (Lys-Gly-Ser-Gly-Pro-Tyr-Val-Ile-Trp-Leu-Gly-Lys) (SEQ ID NO.: 6) (SEQ ID NO.: 7). In this approach, one end of the specific peptide was labeled with a donor and the other with an acceptor chromophore. A selective cleavage of this specific peptide sequence by MMP-9 protease results in the separation of the two segments of oligopeptide carrying the donor and acceptor and consequently leads to significant increase of donor signal and decrease in acceptor signal. A ratiometric approach allows excellent dynamic range for detection that produces an almost 60 fold change when going from intact to completely cleaved peptide.
They have also shown that the peptide is very specific and is not digested by MMP-2 enzyme MMP-3 or MMP-7 enzymes. FRET sensitized fluorescence detection proves to be very effective detection approach. Similar specific peptide sequences have been developed for MMP-2, MMP-7 and more. To make highly confident assessment of various proteases activities directly in cells and tissue it is necessary to have single molecular probe capable for simultaneous analysis/detection of more than one protease. […]

[2] = target: T1, MMP-2 (Homo sapiens, UniProt P08253); assay: specificity of peptide: digestion by MMP-2; settings: peptide as substrate
T1 sequence (P08253 110-660): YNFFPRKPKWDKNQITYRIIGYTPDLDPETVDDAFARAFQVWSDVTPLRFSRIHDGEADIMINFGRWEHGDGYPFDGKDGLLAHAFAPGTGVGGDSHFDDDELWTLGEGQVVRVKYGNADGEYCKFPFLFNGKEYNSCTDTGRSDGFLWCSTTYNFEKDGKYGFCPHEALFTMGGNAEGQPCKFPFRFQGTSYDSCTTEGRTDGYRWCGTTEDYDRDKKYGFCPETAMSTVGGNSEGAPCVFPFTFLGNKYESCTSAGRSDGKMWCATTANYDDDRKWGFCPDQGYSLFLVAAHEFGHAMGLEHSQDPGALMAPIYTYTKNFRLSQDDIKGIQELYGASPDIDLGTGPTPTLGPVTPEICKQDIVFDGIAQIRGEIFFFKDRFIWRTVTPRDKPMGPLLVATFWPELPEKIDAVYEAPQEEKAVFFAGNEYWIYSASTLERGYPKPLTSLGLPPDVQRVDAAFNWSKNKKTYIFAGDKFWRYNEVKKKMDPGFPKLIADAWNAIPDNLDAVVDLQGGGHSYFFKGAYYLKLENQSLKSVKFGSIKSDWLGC
Excerpt: (§1) They have also shown that the peptide is very specific and is not digested by MMP-2 enzyme MMP-3 or MMP-7 enzymes. FRET sensitized fluorescence detection proves to be very effective detection approach. Similar specific peptide sequences have been developed for MMP-2, MMP-7 and more. To make highly confident assessment of various proteases activities directly in cells and tissue it is necessary to have single molecular probe capable for simultaneous analysis/detection of more than one protease. The present invention includes methods for developing and constructing a new probe that will be capable of simultaneous detection of activities of two proteases (like MMP-2 and MMP-9) at the same time and the same place by the same molecule (molecular construct). […] The probe is constructed in a way to force two sequential steps of energy transfer process. First step (FRET 1), is mediated through the cleavable linker specific to enzyme 1 (for example MMP-9) and occurs between the first energy donor and first acceptor (acceptor is a central body). Second step (FRET 2), is between the first acceptor that becomes donor to the second acceptor. The second donor and second acceptor are separated by linker specific to enzyme 2 (for example MMP-2). A highly efficient well-defined sequential FRET process offers distinctive signatures for recognizing two proteins activities. […]

[3] = target: MMP-3 (Homo sapiens, UniProt P08254); assay: specificity of peptide: digestion by MMP-3; settings: peptide as substrate
Excerpt: as §1

[4] = target: T2, MMP-7 (Homo sapiens, UniProt P09237); assay: specificity of peptide: digestion by MMP-7; settings: peptide as substrate
T2 sequence (P09237 95-267): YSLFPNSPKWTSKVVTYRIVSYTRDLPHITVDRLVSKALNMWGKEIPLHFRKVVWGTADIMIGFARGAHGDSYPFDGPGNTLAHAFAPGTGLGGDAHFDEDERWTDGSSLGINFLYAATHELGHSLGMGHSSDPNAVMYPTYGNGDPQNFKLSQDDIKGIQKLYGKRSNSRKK
Excerpt: as §1

Sequence of MMP-9 (P14780 94-707): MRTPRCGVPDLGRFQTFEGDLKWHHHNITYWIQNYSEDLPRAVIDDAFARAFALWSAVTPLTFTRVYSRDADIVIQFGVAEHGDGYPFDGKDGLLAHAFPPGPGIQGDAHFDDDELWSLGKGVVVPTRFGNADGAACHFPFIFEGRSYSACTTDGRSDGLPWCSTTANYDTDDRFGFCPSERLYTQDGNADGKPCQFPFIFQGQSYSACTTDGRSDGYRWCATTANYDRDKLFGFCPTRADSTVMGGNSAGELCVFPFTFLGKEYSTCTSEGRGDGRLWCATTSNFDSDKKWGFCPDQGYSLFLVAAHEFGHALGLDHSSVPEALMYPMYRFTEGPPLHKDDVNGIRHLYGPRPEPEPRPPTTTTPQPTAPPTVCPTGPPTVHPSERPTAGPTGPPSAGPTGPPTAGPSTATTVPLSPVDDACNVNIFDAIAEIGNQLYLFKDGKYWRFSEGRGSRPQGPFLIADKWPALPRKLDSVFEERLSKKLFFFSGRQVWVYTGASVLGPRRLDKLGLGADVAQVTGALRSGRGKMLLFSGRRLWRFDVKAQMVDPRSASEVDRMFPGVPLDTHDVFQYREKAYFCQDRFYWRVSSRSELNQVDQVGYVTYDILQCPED
Sequence of MMP-3 (P08254 100-477): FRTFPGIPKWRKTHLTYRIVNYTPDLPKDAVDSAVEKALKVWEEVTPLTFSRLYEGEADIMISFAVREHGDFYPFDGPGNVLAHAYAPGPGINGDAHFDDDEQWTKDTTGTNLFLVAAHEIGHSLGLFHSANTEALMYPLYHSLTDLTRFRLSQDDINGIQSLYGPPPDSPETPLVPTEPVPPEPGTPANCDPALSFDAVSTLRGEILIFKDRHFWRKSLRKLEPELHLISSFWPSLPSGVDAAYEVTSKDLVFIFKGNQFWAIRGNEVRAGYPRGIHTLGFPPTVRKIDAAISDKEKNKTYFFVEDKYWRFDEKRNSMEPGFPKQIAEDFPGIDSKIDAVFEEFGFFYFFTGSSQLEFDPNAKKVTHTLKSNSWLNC

Substance: Lys-Gly-Pro-Arg-Ser-Leu-Ser-Gly-Lys (KGPRSLSGK; also: donor and acceptor labels) [labeled with donor on one end and acceptor on the other]
- cleavage of the peptide by MMP-9 ([1]; peptide as substrate): very effectively cleaves
- FRET when intact ([1]; peptide labeled with donor and acceptor, intact, before addition of MMP-9): > 90%
- ratiometric change (donor/acceptor signal) going from intact to completely cleaved peptide ([1]; peptide labeled with donor on one end and acceptor on the other, cleaved by MMP-9): ~60 fold
- digestion of the peptide by MMP-2 enzyme [2]: not digested
- digestion of the peptide by MMP-3 enzyme [3]: not digested
- digestion of the peptide by MMP-7 enzyme [4]: not digested
